Reference: the Human Domainome abundance scans (Beltran et al. 2025)
± gives the uncertainty stated by the source.

B1: Ubiquitin-protein ligase residues 30 to 86; numbered along this chain, Q05086 (parent)
chain: KHLIERYYHQLTEGCGNEACTNEFCASCPTFLRMDNNAAAIKALELYKINAKLCDPH

Variants of: B1
Assay: abundance fitness (aPCA) (normalised: wild type 0, dead -1); higher = more abundant; growth selection in yeast, the domain comes from the species named
Details: Homo sapiens

Row | Variant | abundance fitness
1 | KHLIERYYHQLTEGCGNEACTNEFCASCPEFLRMDNNAAAIKALELYKINAKLCDPH [T30E] | -0.055 ± 0.089
2 | KHLIERYYHQLTEGCGNEACTNEFCASCPCFLRMDNNAAAIKALELYKINAKLCDPH [T30C] | -0.022 ± 0.11
3 | KHLIERYYHQLTEGCGNEACTNEFCASCPWFLRMDNNAAAIKALELYKINAKLCDPH [T30W] | -0.006 ± 0.12
4 | KHLIERYYHQLTEGCGNEACTNEFCASCPPFLRMDNNAAAIKALELYKINAKLCDPH [T30P] | -0.097 ± 0.11
5 | KHLIERYYHQLTEGCGNEACTNEFCASCPIFLRMDNNAAAIKALELYKINAKLCDPH [T30I] | -0.042 ± 0.059
6 | KHLIERYYHQLTEGCGNEACTNEFCASCPDFLRMDNNAAAIKALELYKINAKLCDPH [T30D] | -0.071 ± 0.12
7 | KHLIERYYHQLTEGCGNEACTNEFCASCPVFLRMDNNAAAIKALELYKINAKLCDPH [T30V] | -0.083 ± 0.066
8 | KHLIERYYHQLTEGCGNEACTNEFCASCPMFLRMDNNAAAIKALELYKINAKLCDPH [T30M] | -0.153 ± 0.093
9 | KHLIERYYHQLTEGCGNEACTNEFCASCPQFLRMDNNAAAIKALELYKINAKLCDPH [T30Q] | -0.048 ± 0.11
10 | KHLIERYYHQLTEGCGNEACTNEFCASCPGFLRMDNNAAAIKALELYKINAKLCDPH [T30G] | 0.025 ± 0.063
11 | KHLIERYYHQLTEGCGNEACTNEFCASCPRFLRMDNNAAAIKALELYKINAKLCDPH [T30R] | 0.044 ± 0.074
12 | KHLIERYYHQLTEGCGNEACTNEFCASCPAFLRMDNNAAAIKALELYKINAKLCDPH [T30A] | 0.018 ± 0.074
13 | KHLIERYYHQLTEGCGNEACTNEFCASCPKFLRMDNNAAAIKALELYKINAKLCDPH [T30K] | 0.012 ± 0.096
14 | KHLIERYYHQLTEGCGNEACTNEFCASCPLFLRMDNNAAAIKALELYKINAKLCDPH [T30L] | -0.083 ± 0.075
15 | KHLIERYYHQLTEGCGNEACTNEFCASCPSFLRMDNNAAAIKALELYKINAKLCDPH [T30S] | 0.016 ± 0.081
16 | KHLIERYYHQLTEGCGNEACTNEFCASCPYFLRMDNNAAAIKALELYKINAKLCDPH [T30Y] | -0.216 ± 0.13
17 | KHLIERYYHQLTEGCGNEACTNEFCASCPNFLRMDNNAAAIKALELYKINAKLCDPH [T30N] | -0.052 ± 0.13
18 | KHLIERYYHQLTEGCGNEACTNEFCMSCPTFLRMDNNAAAIKALELYKINAKLCDPH [A26M] | -0.111 ± 0.067
19 | KHLIERYYHQLTEGCGNEACTNEFCYSCPTFLRMDNNAAAIKALELYKINAKLCDPH [A26Y] | -0.076 ± 0.1
20 | KHLIERYYHQLTEGCGNEACTNEFCTSCPTFLRMDNNAAAIKALELYKINAKLCDPH [A26T] | -0.328 ± 0.075
21 | KHLIERYYHQLTEGCGNEACTNEFCQSCPTFLRMDNNAAAIKALELYKINAKLCDPH [A26Q] | -0.156 ± 0.081
22 | KHLIERYYHQLTEGCGNEACTNEFCPSCPTFLRMDNNAAAIKALELYKINAKLCDPH [A26P] | -0.876 ± 0.12
23 | KHLIERYYHQLTEGCGNEACTNEFCWSCPTFLRMDNNAAAIKALELYKINAKLCDPH [A26W] | -0.104 ± 0.079
24 | KHLIERYYHQLTEGCGNEACTNEFCVSCPTFLRMDNNAAAIKALELYKINAKLCDPH [A26V] | -0.156 ± 0.052

Row | Variant | abundance fitness
25 | KHLIERYYHQLTEGCGNEACTNEFCRSCPTFLRMDNNAAAIKALELYKINAKLCDPH [A26R] | -0.096 ± 0.05
26 | KHLIERYYHQLTEGCGNEACTNEFCLSCPTFLRMDNNAAAIKALELYKINAKLCDPH [A26L] | -0.143 ± 0.055
27 | KHLIERYYHQLTEGCGNEACTNEFCKSCPTFLRMDNNAAAIKALELYKINAKLCDPH [A26K] | 0.034 ± 0.093
28 | KHLIERYYHQLTEGCGNEACTNEFCISCPTFLRMDNNAAAIKALELYKINAKLCDPH [A26I] | -0.097 ± 0.094
29 | KHLIERYYHQLTEGCGNEACTNEFCSSCPTFLRMDNNAAAIKALELYKINAKLCDPH [A26S] | -0.047 ± 0.063
30 | KHLIERYYHQLTEGCGNEACTNEFCGSCPTFLRMDNNAAAIKALELYKINAKLCDPH [A26G] | -0.146 ± 0.05
31 | KHLIERYYHQLTEGCGNEACTNEFCHSCPTFLRMDNNAAAIKALELYKINAKLCDPH [A26H] | -0.163 ± 0.13
32 | KHLIERYYHQLTEGCGNEACTNEFCASCSTFLRMDNNAAAIKALELYKINAKLCDPH [P29S] | -0.09 ± 0.1
33 | KHLIERYYHQLTEGCGNEACTNEFCASCHTFLRMDNNAAAIKALELYKINAKLCDPH [P29H] | -0.036 ± 0.29
34 | KHLIERYYHQLTEGCGNEACTNEFCASCDTFLRMDNNAAAIKALELYKINAKLCDPH [P29D] | -0.252 ± 0.2
35 | KHLIERYYHQLTEGCGNEACTNEFCASCWTFLRMDNNAAAIKALELYKINAKLCDPH [P29W] | -0.557 ± 0.2
36 | KHLIERYYHQLTEGCGNEACTNEFCASCQTFLRMDNNAAAIKALELYKINAKLCDPH [P29Q] | -0.103 ± 0.17
37 | KHLIERYYHQLTEGCGNEACTNEFCASCFTFLRMDNNAAAIKALELYKINAKLCDPH [P29F] | -0.195 ± 0.16
38 | KHLIERYYHQLTEGCGNEACTNEFCASCATFLRMDNNAAAIKALELYKINAKLCDPH [P29A] | -0.118 ± 0.11
39 | KHLIERYYHQLTEGCGNEACTNEFCASCKTFLRMDNNAAAIKALELYKINAKLCDPH [P29K] | -0.014 ± 0.14
40 | KHLIERYYHQLTEGCGNEACTNEFCASCVTFLRMDNNAAAIKALELYKINAKLCDPH [P29V] | -0.156 ± 0.09
41 | KHLIERYYHQLTEGCGNEACTNEFCASCGTFLRMDNNAAAIKALELYKINAKLCDPH [P29G] | -0.088 ± 0.11
42 | KHLIERYYHQLTEGCGNEACTNEFCASCLTFLRMDNNAAAIKALELYKINAKLCDPH [P29L] | -0.149 ± 0.11
43 | KHLIERYYHQLTEGCGNEACTNEFCASCITFLRMDNNAAAIKALELYKINAKLCDPH [P29I] | -0.122 ± 0.15
44 | KHLIERYYHQLTEGCGNEACTNEFCASCRTFLRMDNNAAAIKALELYKINAKLCDPH [P29R] | -0.061 ± 0.089
45 | KHLIERYYHQLTEGCGNEACTNEFCASCETFLRMDNNAAAIKALELYKINAKLCDPH [P29E] | 0.03 ± 0.17
46 | KHLIERYYHQLTEGCGNEACTNEFCASCYTFLRMDNNAAAIKALELYKINAKLCDPH [P29Y] | -0.191 ± 0.22
47 | KHLIERYYHQLTEGCGNEACTNEFCASCNTFLRMDNNAAAIKALELYKINAKLCDPH [P29N] | -0.304 ± 0.3
